Here are results for three molecules from PMC6053351, “Structural and biochemical insights into human zinc finger protein AEBP2 reveals interactions with RBBP4” (Protein & Cell, 2017).

Common to all, as to conditions: both partners purified
Assay [1] concerns the target T1, RBBP4, full-length, wild type (UniProt Q09028 1-425).
T1 construct: RBBP4 (also known as RbAp48), full-length; also called RbAp48; apo RBBP4
Description: ITC; AEBP2_(379–390) peptide titrated into RBBP4; one-site binding model, Origin 7. (In general: In ITC the heat of successive injections is recorded.)

Another assay has as its target T2, RBBP4 Glu231Ala (UniProt Q09028 1-425, Glu231Ala).
T2 construct: RBBP4 with the mutation Glu231Ala; parent is the wild-type RBBP4 of m1; also called RBBP4 E231A
The description is as above.

Assay [2] has as its target T3, RBBP4 Glu126Ala/Asn128Ala/Glu179Ala (UniProt Q09028 1-425, Glu126Ala | Asn128Ala | Glu179Ala).
T3 construct: RBBP4 with the mutations Glu126Ala/Asn128Ala/Glu179Ala; parent is the wild-type RBBP4 of m1; also called RBBP4 E126A/N128A/E179A
Described as above.

Assay [3] concerns the target T1, RBBP4, full-length, wild type. The experiment in a line: SEC; gel filtration on a Superdex 200 10/300 GL column; RBBP4 mixed with excess AEBP2 ZF-RRK, against apo RBBP4 and apo ZF-RRK; SDS-PAGE of the peaks.

T1 sequence (Q09028 whole entry): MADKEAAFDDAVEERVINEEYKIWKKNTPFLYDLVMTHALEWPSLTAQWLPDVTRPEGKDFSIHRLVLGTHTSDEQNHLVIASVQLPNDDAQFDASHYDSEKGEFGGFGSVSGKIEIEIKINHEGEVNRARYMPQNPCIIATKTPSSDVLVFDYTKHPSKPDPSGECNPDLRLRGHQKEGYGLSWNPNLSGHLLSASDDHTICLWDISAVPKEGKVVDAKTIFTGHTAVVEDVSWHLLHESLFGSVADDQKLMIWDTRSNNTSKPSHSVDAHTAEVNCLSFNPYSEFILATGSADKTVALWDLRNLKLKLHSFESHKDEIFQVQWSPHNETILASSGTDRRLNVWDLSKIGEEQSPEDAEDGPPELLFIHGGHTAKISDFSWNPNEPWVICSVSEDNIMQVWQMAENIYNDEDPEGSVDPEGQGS
T3 sequence (Q09028 whole entry E126A/N128A/E179A): as the sequence (Q09028 whole entry) above, with E126A, N128A, E179A counted along it
T2 sequence (Q09028 whole entry E231A): as the sequence (Q09028 whole entry) above, with E231A counted along it

B1: AEBP2_(379–390) peptide with mutations Arg380Ala/Lys382Ala (peptide, UniProt Q6ZN18-1 379-390, looked up)
peptide: KARALKNKRRRS
notes: AEBP2, human, residues Lys379–Ser390 of Uniprot entry Q6ZN18-1 with Arg380Ala/Lys382Ala
B1: the “fold reduction of binding affinity against the wild-type peptide” value in assay [1] was roughly 20 fold.

B2: AEBP2_(379–390) peptide (RRK-rich motif, residues Lys379–Ser390) (peptide, UniProt Q6ZN18-1 379-390, looked up)
peptide: KRRKLKNKRRRS
notes: AEBP2, human, RRK-rich motif, residues Lys379–Ser390 of Uniprot entry Q6ZN18-1; source: synthetic peptide
In assay [1], B2 had a Kd of 7.6 ± 0.6 µM and a dH of -15.9 ± 0.395 kcal/mol. Moreover, the “fold reduction of binding affinity against wild-type RBBP4” value with RBBP4 Glu231Ala stood at 5 fold. Moreover, in assay [2], the “fold reduction of binding affinity against wild-type RBBP4” value was determined as 7 fold.

B3: AEBP2 ZF-RRK (ZF1–3 and the RRK-rich motif, residues Asn258–Asp396) (domain or fragment, human, UniProt Q6ZN18-1 258-396, looked up)
chain: NIAYNCCWDQCQACFNSSPDLADHIRSIHVDGQRGGVFVCLWKGCKVYNTPSTSQSWLQRHMLTHSGDKPFKCVVGGCNASFASQGGLARHVPTHFSQQNSSKVSSQPKAKEESPSKAGMNKRRKLKNKRRRSLPRPHD
notes: AEBP2, human, residues Asn258–Asp396 (numbering as for Uniprot entry Q6ZN18-1); also called apo AEBP2 ZF-RRK; source: recombinant protein
Take B3: in assay [3], the binding result was “binds”.

For orientation: Kd means a measure of binding affinity in units of concentration. The low end stands for higher affinity, the high end for lower affinity.
